{
  "source": "patent US20230272028",
  "proteins": {"B1": {"name": "Cathepsin K (CTSK) (protein)", "chain": "APDSVDYRKKGYVTPVKNQGQCGSCWAFSSVGALEGQLKKKTGKLLNLSPQNLVDCVSENDGCGGGYMTNAFQYVQKNRGIDSEDAYPYVGQEESCMYNPTGKAAKCRGYREIPEGNEKALKRAVARVGPVSVAIDASLTSFQFYSKGVYYDESCNSDNLNHAVLAVGYGIQKGNKHWIIKNSWGENWGNKGYILMARNKNNACGIANLASFPKM"}},
  "key": {"[1]": {"target": "T1, CTSL1_1 FRET substrate (ALFKSSFP)", "T1 chain": "ALFKSSFP"}, "[2]": {"target": "T2, CTSL1_2 8-mer FRET substrate Mca-ALFFSSPPK-Dnp", "T2 chain": "ALFFSSPPK"}},
  "data": [
    {"protein": "B1", "values": [
      {"measurement": "FRET substrate cleavage, specific activity", "setting": "[1]", "value": "measurably cleaved by CTSK but at a 15× lower level than the CTSL1_1 substrate"},
      {"measurement": "FRET substrate cleavage, specific activity", "setting": "[2]", "value": "measurably cleaved by CTSK but at a 15× lower level than the CTSL1_1 substrate"}
    ]}
  ]
}
